Assay results taken from patent US8883964B2, “Compositions comprising modified collagen and uses therefor” (The Johns Hopkins University, priority 2004, dated 2014).
Square brackets hold non-standard residues; d marks the D form. Ends that are not written are not given here. Hyp = O=C(O)[C@@H]1C[C@@H](O)CN1

Legend:
type I collagen fibers = target: T1, type I collagen fibers (Bos taurus, UniProt P02453+P02465); test: TEM analysis of NP binding to reconstituted type I collagen fibers; design: species or system bovine; conditions: phosphate buffer at 25° C.
T1 construct: natural collagen (acid soluble, bovine type I); purchased Sigma
Protocol: Moreover, NP-3 seemed to bind to defined locations within the gap regions along the fiber axis (FIG. 19C). Due to the large particle size and limitations of transmission electron microscopy resolution, the exact locations of these binding sites could not be determined. Twice as many NP-3 particles per unit area was found in the gap regions (dark bands) than on the overlap regions (light bands) of the collagen fibers. This difference was abolished at incubation temperatures above 40° C. (FIG. 20).
Collagen fibers were regenerated by mixing 0.5 mL of acid soluble type I collagen (1 mg/mL) in 50 mM acetic acid solution with 1 mL of sodium phosphate buffer (10 mM, pH 8.25). The mixture was incubated at room temperature for 12 hours.
A drop (8 μL) of type I collagen solution (0.3 mg/mL in PBS containing 1% BSA) was added to a holey carbon TEM grid. NP-3 solution (3 nM in PBS containing 1% BSA) was added to the grid and incubated for 5 minutes at room temperature or at 40° C., followed by washing with deionized water. The collagen fibers were stained with uranyl acetate (1%).

[1] = Dynamic light scattering of CMP functionalized gold NPs; format: physicochemical
Protocol: The thickness of the peptide layer on the gold NP surface was determined by dynamic light scattering (DLS) (FIG. 15). The peptide layer thicknesses of NP-1, NP-2 and NP-3 were 2.0 nm, 3.65 nm and 6.85 nm, respectively (Table 3).
Purified Cys-CMP (peptides 1′˜4′) (0.5 mL, 500 μM) was added to gold nanoparticle solution (5 mL, 17 nM), and the reaction mixture was incubated at room temperature for twenty-four hours. Excess CMPs were removed by repeated centrifugation and washing in deionized water.

[2] = Measurement of number of peptides per NP (passivation number); format: physicochemical
Protocol: The average number of CMPs on the NPs was determined by measuring the concentrations of free CMPs remaining in solution after the removal of the NPs from a series of incubation mixtures with varying CMP/NP ratios (FIG. 16 and Table 3).^36 The numbers of CMPs immobilized on the NP surfaces were 582, 444, and 399 for NP-1, NP-2, and NP-3, respectively. […] This may have been caused by surface anchoring of the chain ends that prohibited the staggered arrangement of the peptide chains required for the formation of triple helix.
Seven 10 μM Cys-CMP solutions with varying concentrations of citrate-stabilized gold NP (2˜14 nM) were prepared. The mixtures were incubated for 2 hours at 25° C. and the gold NPs were removed by centrifugation. The concentrations of free peptides remaining in the supernatant were determined from the UV-Vis absorbance at 215 nm with citrate ion background subtraction. The number of peptides per Au NP was calculated from the slope of the linear fit of the data points. (FIG. 17)

T1 sequence (P02453 162-1217 limits assumed): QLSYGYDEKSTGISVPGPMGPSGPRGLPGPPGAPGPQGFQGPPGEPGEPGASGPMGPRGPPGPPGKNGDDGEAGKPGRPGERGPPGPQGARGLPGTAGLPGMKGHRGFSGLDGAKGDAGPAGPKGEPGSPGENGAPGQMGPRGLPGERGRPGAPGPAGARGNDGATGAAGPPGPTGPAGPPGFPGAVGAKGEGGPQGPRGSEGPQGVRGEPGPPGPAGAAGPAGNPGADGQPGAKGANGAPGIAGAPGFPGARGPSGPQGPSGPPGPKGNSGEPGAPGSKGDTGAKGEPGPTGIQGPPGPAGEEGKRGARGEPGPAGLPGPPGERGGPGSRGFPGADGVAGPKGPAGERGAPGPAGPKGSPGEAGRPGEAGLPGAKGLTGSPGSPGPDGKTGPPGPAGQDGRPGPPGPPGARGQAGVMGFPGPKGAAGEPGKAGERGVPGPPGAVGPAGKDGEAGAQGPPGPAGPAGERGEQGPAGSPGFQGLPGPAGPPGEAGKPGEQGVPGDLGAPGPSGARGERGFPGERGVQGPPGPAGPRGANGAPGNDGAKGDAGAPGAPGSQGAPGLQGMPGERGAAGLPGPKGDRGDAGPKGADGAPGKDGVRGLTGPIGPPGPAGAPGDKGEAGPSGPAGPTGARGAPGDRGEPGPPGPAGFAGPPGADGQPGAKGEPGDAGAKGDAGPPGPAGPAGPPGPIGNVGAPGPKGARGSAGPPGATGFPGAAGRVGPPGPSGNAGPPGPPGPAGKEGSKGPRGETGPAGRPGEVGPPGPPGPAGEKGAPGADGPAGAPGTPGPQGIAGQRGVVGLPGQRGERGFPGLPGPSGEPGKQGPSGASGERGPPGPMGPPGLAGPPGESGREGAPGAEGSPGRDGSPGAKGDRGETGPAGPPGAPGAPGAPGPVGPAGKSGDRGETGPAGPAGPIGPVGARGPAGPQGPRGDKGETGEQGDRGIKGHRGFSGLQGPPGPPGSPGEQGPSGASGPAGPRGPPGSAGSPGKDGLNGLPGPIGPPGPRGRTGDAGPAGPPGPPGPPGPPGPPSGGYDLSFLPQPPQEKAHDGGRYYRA
T1 sequence (P02465 80-1117 limits assumed): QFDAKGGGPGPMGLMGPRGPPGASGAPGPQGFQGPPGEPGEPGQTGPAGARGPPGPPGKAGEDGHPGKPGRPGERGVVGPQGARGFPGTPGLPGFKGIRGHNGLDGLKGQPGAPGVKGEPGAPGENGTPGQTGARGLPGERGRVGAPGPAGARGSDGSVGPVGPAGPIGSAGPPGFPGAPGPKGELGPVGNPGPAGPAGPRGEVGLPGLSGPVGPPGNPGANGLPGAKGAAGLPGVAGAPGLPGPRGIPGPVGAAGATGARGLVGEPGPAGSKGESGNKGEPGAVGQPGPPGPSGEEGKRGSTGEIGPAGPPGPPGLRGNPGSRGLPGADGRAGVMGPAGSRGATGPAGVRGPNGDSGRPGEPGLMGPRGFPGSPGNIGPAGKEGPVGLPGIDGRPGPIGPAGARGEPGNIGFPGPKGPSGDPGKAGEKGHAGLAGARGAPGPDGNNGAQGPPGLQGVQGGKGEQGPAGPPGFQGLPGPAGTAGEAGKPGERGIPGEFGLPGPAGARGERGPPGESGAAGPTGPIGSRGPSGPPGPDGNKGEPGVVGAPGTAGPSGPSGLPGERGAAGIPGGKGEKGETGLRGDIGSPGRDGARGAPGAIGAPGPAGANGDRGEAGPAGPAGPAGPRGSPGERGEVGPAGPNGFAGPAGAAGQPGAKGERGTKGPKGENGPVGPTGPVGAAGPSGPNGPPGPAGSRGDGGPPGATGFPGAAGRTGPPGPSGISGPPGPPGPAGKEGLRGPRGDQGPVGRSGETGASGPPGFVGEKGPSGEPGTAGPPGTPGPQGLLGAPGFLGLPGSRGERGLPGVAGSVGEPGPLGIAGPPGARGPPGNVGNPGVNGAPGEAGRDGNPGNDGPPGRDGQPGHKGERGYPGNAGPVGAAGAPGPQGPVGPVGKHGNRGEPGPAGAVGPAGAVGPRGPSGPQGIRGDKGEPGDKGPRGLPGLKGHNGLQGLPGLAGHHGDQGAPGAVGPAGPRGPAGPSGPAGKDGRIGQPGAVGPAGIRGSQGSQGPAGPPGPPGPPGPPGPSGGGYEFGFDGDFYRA

Q: Which “binding to type I collagen fibers” value (type I collagen fibers) does the source give for “NP-4: gold nanoparticle functionalized with scrambled peptide 4′ (CGPG[Hyp]P[Hyp]PPGPP[Hyp]G[Hyp][Hyp]P[Hyp]G[Hyp]GG; also: N-terminal Cys bound to gold nanoparticle surface)” here?
A: little binding

Q: And the “Particle Size by DLS” value [1]?
A: 16.2 ± 3.1 nm

Q: And the “Measured Peptide layer thickness” value ([1]; DLS)?
A: 1.5 nm

Q: What about the “Number of peptides per NP” value [2] of the same substance?
A: 524 ± 59
